# Measured values published in the nanobody polyreactivity screen of Harvey et al. (2022).
# Test: yeast display, Sf9 membrane polyspecificity reagent, FACS + sequencing; frameworks hold sequencing errors
# How it was run: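 Genes from sorted yeast were amplified by colony PCR, read by MiSeq 2 × 250 sequencing and filtered on CDR length. These cells carried a synthetic nanobody library in Saccharomyces cerevisiae BJ5465 and were sorted by FACS into low and high (top ~1%) gates on anti-HA and streptavidin fluorescence. Polyreactivity is labelled according to the gate of origin.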
row,Sequence,polyreactivity (PSR sort gate)
1,AVQLVESGGGLVQAGGSLRLSCAASGSIFPWYTMGWYRQAPGKERELVASITKSGARTYYADSVKGRFTISRDNAKNTVYLQMNSLKPEDTAVYYCAAVYPVWKYHYAYWGQGTQVTVSS,high polyreactivity
2,EDELVESGGGIVQAGGSLRLSCAATGSIIVVNAMVWYRQAPRKERELVAAISRGGITNYADSVKGRFTISRDNAKNTVYLQMNSLKPEDTAVYYCNARGSRWVKPERDYWGQGTQVTVSS,low polyreactivity
3,EEELVESGGGLVQAGGSLRLSCAASGRTFARNAMGWYRQAPGKERELVAGINFSGGNTYYADSVKGRFTISRDNAKNTVYLQMNSLKPEDTEVYYCAPRRYWEGDYWGQGTQVTVSS,low polyreactivity
4,EEELVESGGGLVQAGGSLRLSCAASGRTYPNTMGWYRQAPGKERELVAAITTSGTSTRYADSVKGRFTISRDNAKNTVYLQMNSLKPEDTAVYYCATRYSGKTYHYNYWGQGTQVTVSS,high polyreactivity
5,EEELVESGGGLVQAGGSLRLSCAASGSTFLVYAMGWYRQAPGKERELVAVITYSTVRTYYADSVKGRFTISRDNAKNTVYLQMNSLKPEDTAVYYCNADKEYAVLGQGMDYWGQGTQVSVSS,low polyreactivity
6,EEELVESGGGLVQAGGSLSLICAASGLTFYIYAMGWYRPAPGKERELVAAITTSGDSTYYADSVKGRFTISRDNAKNTVYLLLNSLKPEDTAVYYGAAAVWHYGRPGYLDSGYDYWGQGTQVSVSS,low polyreactivity
7,EVHLVESGGCLVQPRGSLRLSCAASGYNYIRYRMGSYRQAPGKVREFVAAISGGSSTNYADSVKGRFTISRDNSKNTVYLQMNSLRAEDTAVYYCAAYKIDSDPRVYWGQGTQVTVSS,low polyreactivity
8,EVQLQESGGGLVQAGGSLRLSCAASGYTYNEYVMGWYRQATGKERELVAAISGSGGSTYYADSVKGRFTISRDNAKNTVYLQMNSLKPEDTAVYYCAARGYNSRGYDMDYWGQGTQVTVSS,high polyreactivity
9,EVQLVESGGGLVQPGGSLRLSCEASGYIYSRYRMGWYRQAPGKAREFVAAISGGSSTNYADSVKGRFTISRDNSKNTVYLQMNSLRAEDTAVYYCAAYKIDSDPRVYWGQGTQVTVSS,low polyreactivity
10,GSTIYADSVKGRFTISRDNAKNTVYLQMNSLKPEDTAVYYCNKDDRNDRTIPGYDPEYDYWGQGTQVTVSS,low polyreactivity
11,HAQLQESGGGLVQAGGSLRRSCAASGSIFRFSGMGWYRRAPGKERELVASIGFGSITYYADRVKGRFTISRDHANNTVYLQMNSLKPEDTAVYYCAVQVQDESWLDYWGQGTQVTVSC,low polyreactivity
12,HDQLVESGGGFVQAGGSLRLICAASGSTFIGYAMGWYRQAPGKERELVADISWSGGRTYYADSVKGRFTISRDNEKNTVYLQMNSLKPEDTAVYYCAARGSGHTRSYYWGQGTQVTVSS,high polyreactivity
13,HDQLVESGGGLVQAGGSLRLTCAASGFIFGAYTMGWYRQAPGKERELVAAISWSGDSTYYADSVKGRFTISRDNAKNTVYLQMNSLKPEDTAVYYCAAVWYWSGFDYWGQGTQVTVSS,high polyreactivity
14,HEHLQESRGGLVQAGGSLRLSCAASGSIFQATYMGWYRQAPRKEREFVASITYGSITNYADSVKGRFTIGRDNATDTLYLQMNSLKQEDTAVYYWAVDRHYIPAFHYWGQGTQVTVSS,low polyreactivity
15,HFQLVESGGGIVQAGGSLRLSCAASGRTCFYNAMGWYRQAPGKERELVAAISWSGGSTYYADSVKGRFTISRDNAKNPVSLQMNSLNREDTAVYYCNAAYGRRYDYWGQGTQVTVSS,high polyreactivity
16,HGQLVESGGGLVQAGGSLRLSCAASGVTFSYYAMGWYRQGPGKDRELVAAITSSAGSTYYADSVKGRFTISRDNAKNTVYLQMNSLKPEDSALYYCNAVYSKLNGGYDYWGQGTQVTVSS,low polyreactivity
17,HLQLVESGGGLVQAGGSLRLSCAPSGRILRDYDMGWYRQAPGKERELVAAINWSDGSTYYADSVKGRFTISRDNAKNTVYLQMNSLKPDDTAVFYCAASRWRPLERGTSWLHDYWGQGTQVTVSS,low polyreactivity
18,HVPLVESGGGLVQAGGSLRLSCAASGSIFVWYVMGWYRQAPGKEWELVAAITWSAARTYYADSVKGRFTISRDNAKITVYLQMNSLKPEDTAVYYGAADPVSYQPSSRIFDYWGQATQVTVSS,low polyreactivity
19,HVQHVESAVGLVQAGGRLRLSCAASGIIFRGNVMGWYIPAPGKERELVAAISGSGGRTYYADSVKGRFTISRDNAKNTVYLLMNSLKPEDTAVYYCAVSGTRTIWGISYRMYYWGQGTQVTVSS,high polyreactivity
20,HVQLEESGGGEVQAGGSLRLTCAASGLIYTTYAMGWYRPAPGTERELVAAISRRGSRTYYADSVKGRFTISRDNAKNTVYLQMNSLNPEDTAVYYCNALTGSFKTDSFDYWGQGTQVTVSS,high polyreactivity
21,HVQLGESGGGLVQAGGSLRLSCAASGRNFERNVMGWYRPATGKERELVAGIRSDGDRTYYADSVKGRFTISRDNSKNTVYLQLKSLKPEDTAVYYCAVVWYDKGRQTRYNYWGQGTQVTVSS,high polyreactivity
22,HVQLKESGGGLVQAGGSLRLSCAASGSIFKVVDMGLYRKAPAKEREFVANIGEGCNTYYADSVKGRFTISRDNAKNTVYLQMNSLKPEDTAVYFYAFVLGTSYRYTYWGQGTLVTVSS,low polyreactivity
23,HVQLLESGGGLLQAGGSLRLSCMASGSILRDRMSWYLQAPGKEHELVATIYDGGITYYADSMKGRFTISRDNAKNTVYLQMNSLRPEDTAVYYCGASFEGYRYHVYCGQGTQVTVSS,low polyreactivity
24,HVQLQERAAWCRRAGSLRQSCAASGNISHYYFMGWYRQAPGKERELVAAIAPGSNTYYADSVKGRFTISRDNAKNTVYLQMNSLKPEDTAVCFCAANSTQYTWFDYWGQGTQVPVSS,low polyreactivity
25,HVQLQESAGGLVQAGGSLRLSCAASGNISYSRNMGWYRQAPGKERELVAAIDRGAITYYADSVKGRFTISRDNATNTVYLQIYSLKPEDTAVYYCAAEYHDRWDHRYWGQGTHVTVSS,high polyreactivity
26,HVQLQESGGGLEQAGGSLRLSCAASGYISDIGTMGWYRQAPGKEREFVANIVVGSTTNYADSVKGRFTISRDNAKNTVYLQPESGRYRGVLLRGWLLAVGKFTYWGQGTQETVSS,low polyreactivity
27,HVQLQESGGGLVQAGGSLRLSCAASGYISHADEMGWYRQAPGKEHELVASISNGGSTNYADSVKGRFTISRDNAKNTVYLQMNSLKSEVTAVYYCAAWTGQVDFHYYWGQGTQVSVSS,low polyreactivity
28,HVQLQESGGGLVQAGGSLRLSCGASGNISYSRSMGCYRQAPGKERELVAAIDRGAITYYADSVKGRFTISRDNAKNTVYLQIYSLKPEDTAVYYCAAVYHDRWDHRYWGQGTQVTVCS,high polyreactivity
29,HVQLQESGGGLVQARGSLRLSCAATGSIFYRLKMGWHRQAPGKERELVATIDPGSNTYYADSVKGSFTISRDNAKKTVYPQMYSLKPEDTAVYYCAVSAHWTIHYYYWGEGTQVTVSS,high polyreactivity
30,HVQLVDSGGGLVQAGGSLRLSCAASGSIFRYYTMGWYRQAPGKERELVAAISWSGGRTYYAHSVKGRFTISRDKAKNTVYLQMNSLKPEDTAVYYCAAVRPYYYPLPTVPNLPYDYWGQGTQVTVSS,high polyreactivity
